Experimental data from PMC5447021, “TNF Lectin-Like Domain Restores Epithelial Sodium Channel Function in Frameshift Mutants Associated with Pseudohypoaldosteronism Type 1B” (Frontiers in Immunology, 2017).
One block for each compound: values may come before it.

Legend:
αβγ-hENaC = molecular target: T1, αβγ-hENaC (Homo sapiens, UniProt P37088+P51168+P51170); assay: Whole-cell patch clamp, WT αβγ-hENaC; format: cell-based
T1 construct: expressed in transfected cells; host or cells: HEK-293
T1 sequence (P37088 1-669): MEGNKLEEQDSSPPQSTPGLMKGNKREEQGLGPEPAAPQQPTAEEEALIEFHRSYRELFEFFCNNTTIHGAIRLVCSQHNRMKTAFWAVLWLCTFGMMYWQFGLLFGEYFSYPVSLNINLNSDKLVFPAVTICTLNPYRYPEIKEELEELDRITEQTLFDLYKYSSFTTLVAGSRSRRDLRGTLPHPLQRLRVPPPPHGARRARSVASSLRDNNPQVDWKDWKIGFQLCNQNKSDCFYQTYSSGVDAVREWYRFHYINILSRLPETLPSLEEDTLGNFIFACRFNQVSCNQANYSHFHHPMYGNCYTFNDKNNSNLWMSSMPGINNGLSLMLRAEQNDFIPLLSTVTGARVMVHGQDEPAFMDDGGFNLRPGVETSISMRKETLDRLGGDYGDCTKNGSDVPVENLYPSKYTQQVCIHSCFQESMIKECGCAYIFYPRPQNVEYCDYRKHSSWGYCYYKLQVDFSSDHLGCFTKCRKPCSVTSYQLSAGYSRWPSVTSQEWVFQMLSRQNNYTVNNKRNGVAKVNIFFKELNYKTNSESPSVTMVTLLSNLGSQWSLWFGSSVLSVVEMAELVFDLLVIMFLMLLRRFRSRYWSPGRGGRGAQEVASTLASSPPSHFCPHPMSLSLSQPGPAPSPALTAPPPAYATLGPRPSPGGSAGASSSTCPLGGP
T1 sequence (P51168 1-640 partner): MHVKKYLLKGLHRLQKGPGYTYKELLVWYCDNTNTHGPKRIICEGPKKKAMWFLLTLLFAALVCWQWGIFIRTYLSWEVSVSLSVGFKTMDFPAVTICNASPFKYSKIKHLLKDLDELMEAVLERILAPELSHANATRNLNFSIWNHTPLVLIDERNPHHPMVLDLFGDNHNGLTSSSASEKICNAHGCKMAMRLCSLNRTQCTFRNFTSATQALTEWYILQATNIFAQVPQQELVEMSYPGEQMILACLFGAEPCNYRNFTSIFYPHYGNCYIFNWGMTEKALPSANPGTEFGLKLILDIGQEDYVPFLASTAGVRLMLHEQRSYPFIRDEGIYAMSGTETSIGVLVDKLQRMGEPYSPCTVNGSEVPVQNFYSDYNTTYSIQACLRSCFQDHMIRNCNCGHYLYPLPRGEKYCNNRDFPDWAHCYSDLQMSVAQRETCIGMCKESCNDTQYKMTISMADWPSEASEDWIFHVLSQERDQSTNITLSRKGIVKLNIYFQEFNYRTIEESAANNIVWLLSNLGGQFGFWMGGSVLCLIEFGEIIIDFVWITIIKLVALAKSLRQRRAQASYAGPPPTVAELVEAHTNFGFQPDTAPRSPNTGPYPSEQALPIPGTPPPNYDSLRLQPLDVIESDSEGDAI
T1 sequence (P51170 1-649 partner): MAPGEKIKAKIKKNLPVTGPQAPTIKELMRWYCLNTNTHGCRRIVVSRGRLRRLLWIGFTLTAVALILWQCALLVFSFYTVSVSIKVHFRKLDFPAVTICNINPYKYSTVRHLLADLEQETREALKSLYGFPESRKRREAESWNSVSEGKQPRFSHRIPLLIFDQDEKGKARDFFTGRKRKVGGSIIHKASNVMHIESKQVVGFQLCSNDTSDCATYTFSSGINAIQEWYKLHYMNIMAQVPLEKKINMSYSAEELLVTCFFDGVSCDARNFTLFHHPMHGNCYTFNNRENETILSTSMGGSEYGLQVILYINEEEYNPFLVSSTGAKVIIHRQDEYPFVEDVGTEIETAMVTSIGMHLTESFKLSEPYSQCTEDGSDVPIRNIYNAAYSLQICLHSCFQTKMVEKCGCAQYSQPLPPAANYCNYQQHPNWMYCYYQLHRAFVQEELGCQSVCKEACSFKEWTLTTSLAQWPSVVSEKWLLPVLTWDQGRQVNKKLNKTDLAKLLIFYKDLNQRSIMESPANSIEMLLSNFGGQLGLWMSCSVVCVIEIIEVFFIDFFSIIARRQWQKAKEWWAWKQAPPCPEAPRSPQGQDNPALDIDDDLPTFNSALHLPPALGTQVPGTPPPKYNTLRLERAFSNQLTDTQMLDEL
Procedure: Point mutations of α-, β-, γ- and δ-hENaC and PHA1B frameshift mutations of α-hENaC were prepared with the QuikChange Lightning Site-Directed Mutagenesis Kit (Agilent Technologies, CA, USA). Mutagenic primers were designed individually with the Primer Design Program provided on the producer’s website or for the frameshift mutations the same base changes as reported in patients (see Table 2) were performed. Primers were ordered from Sigma-Aldrich, Vienna, Austria.
(§1) HEK-293 cells were transfected 1 day after cell seeding using X-tremeGENE HP DNA transfection reagent (Roche Diagnostics, Mannheim, Germany) according to the manufacturer’s protocol. A set of WT or mutant αβγ- or δβγ-hENaC, or α-, β-, γ-, or δ-hENaC alone was used, and the ratio of DNA to transfection reagent was 1:3. The expression was highest 48–72 h after transfection.
(§2) Electrophysiological experiments were performed as described in detail by Shabbir et al. ([16]). […] Currents were recorded with the patch clamp method in the whole-cell mode. The chamber contained 1 ml of the bath solution of the following composition (in mM): 145 NaCl, 2.7 KCl, 1.8 CaCl2, 2 MgCl2, 5.5 glucose, and 10 HEPES, adjusted to pH 7.4 with 1 M NaOH solution. Micropipettes were pulled from thin-walled borosilicate glass capillaries (Harvard Apparatus, Holliston, MA, USA) with a DMZ Zeitz Puller to obtain electrode resistances ranging from 2 to 5 MΩ. The pipette solution contained (in millimolars): 135 potassium methane sulfonate, 10 KCl, 6 NaCl, 1 Mg2ATP, 2 Na3ATP, 10 HEPES, and 0.5 EGTA, adjusted to pH 7.2 with 1 M KOH solution. Chemicals for pipette and bathing solutions were supplied by Sigma-Aldrich (Vienna, Austria). Electrophysiological measurements were carried out with an Axopatch 200B patch clamp amplifier (Axon Instruments, CA, USA). Capacity transients were canceled, and series resistance was compensated. Whole-cell currents were filtered at 5 kHz and sampled at 10 kHz. Data acquisition and storage were processed directly to a PC equipped with pCLAMP 10.2 software (Axon Instruments, CA, USA). […]

α-hENaC = molecular target: T2, α-hENaC (Homo sapiens, UniProt P37088); assay: Whole-cell patch clamp, α-hENaC alone; format: cell-based; conditions: TNF, -100 mV, mean ± S.E., n = 5, p < 0.001 vs solnatide
T2 construct: expressed in transfected cells; host or cells: HEK-293
T2 sequence (P37088 1-669): T1 sequence (P37088 1-669)
Procedure: as §1
as §2, with “USA).” for “USA). Capacity transients were canceled, and series resistance was compensated. Whole-cell currents were filtered at 5 kHz and sampled at 10 kHz. Data acquisition and storage were processed directly to a PC equipped with pCLAMP 10.2 software (Axon Instruments, CA, USA).”

δ-hENaC = molecular target: T3, δ-hENaC (Homo sapiens, UniProt P51172); assay: Whole-cell patch clamp, δ-hENaC alone; format: cell-based; conditions: TNF, mean ± S.E., n = 5, p < 0.001 vs solnatide
T3 construct: expressed in transfected cells; host or cells: HEK-293
T3 sequence (P51172 1-638 isoform P51172-1): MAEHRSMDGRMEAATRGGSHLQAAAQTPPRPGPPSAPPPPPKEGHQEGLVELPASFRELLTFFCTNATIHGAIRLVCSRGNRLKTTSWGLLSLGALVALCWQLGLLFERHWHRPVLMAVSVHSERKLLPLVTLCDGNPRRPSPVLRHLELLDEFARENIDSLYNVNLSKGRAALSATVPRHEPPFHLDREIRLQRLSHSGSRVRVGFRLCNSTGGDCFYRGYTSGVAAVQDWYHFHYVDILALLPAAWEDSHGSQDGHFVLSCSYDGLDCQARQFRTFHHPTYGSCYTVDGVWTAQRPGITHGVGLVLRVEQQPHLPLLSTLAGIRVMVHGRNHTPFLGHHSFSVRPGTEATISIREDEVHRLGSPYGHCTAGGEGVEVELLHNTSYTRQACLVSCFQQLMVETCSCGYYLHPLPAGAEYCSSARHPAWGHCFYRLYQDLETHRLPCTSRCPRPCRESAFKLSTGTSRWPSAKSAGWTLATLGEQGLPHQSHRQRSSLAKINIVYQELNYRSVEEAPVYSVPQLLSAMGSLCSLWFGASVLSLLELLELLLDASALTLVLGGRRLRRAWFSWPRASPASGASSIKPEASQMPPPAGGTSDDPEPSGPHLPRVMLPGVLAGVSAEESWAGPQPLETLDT
Procedure: as §1
as §2, with “USA).” for “USA). Capacity transients were canceled, and series resistance was compensated. Whole-cell currents were filtered at 5 kHz and sampled at 10 kHz. Data acquisition and storage were processed directly to a PC equipped with pCLAMP 10.2 software (Axon Instruments, CA, USA).”

β-hENaC = molecular target: T4, β-hENaC (Homo sapiens, UniProt P51168); assay: Whole-cell patch clamp, β-hENaC alone; format: cell-based; conditions: TNF, mean ± S.E., n = 5
T4 construct: expressed in transfected cells; host or cells: HEK-293
T4 sequence (P51168 1-640): T1 sequence (P51168 1-640 partner)
Procedure: as §1
as §2, with “USA).” for “USA). Capacity transients were canceled, and series resistance was compensated. Whole-cell currents were filtered at 5 kHz and sampled at 10 kHz. Data acquisition and storage were processed directly to a PC equipped with pCLAMP 10.2 software (Axon Instruments, CA, USA).”

αR448fsβγ-ENaC (human) = αR448fsβγ-ENaC (human) (UniProt P37088)
[1] = molecular target: α-hENaC expressed alone (human) (UniProt P37088)
[2] = molecular target: δ-hENaC expressed alone (human) (UniProt P51172)
[3] = molecular target: wild-type αβγ-hENaC (amiloride-sensitive epithelial sodium channel) (human) (UniProt P37088)
[4] = molecular target: β-hENaC expressed alone (human) (UniProt P51168)
[5] = molecular target: γ-hENaC expressed alone (human) (UniProt P51170)
αN511Qβγ-ENaC (human) = αN511Qβγ-ENaC (human) (UniProt P37088)
αN232Qβγ-ENaC (human) = αN232Qβγ-ENaC (human) (UniProt P37088)

Compound: N=C(N)NC(=O)c1nc(Cl)c(N)nc1N [amiloride, reference compound]
Block of induced current by amiloride (αβγ-hENaC; 10 µM amiloride, TNF- or solnatide-induced current): blocked by 10 µM amiloride within a few pulses

EC50 (α-hENaC): 4.2 ± 1.9 nM | EC50 (δ-hENaC): 5 ± 0.3 nM | EC50 (αβγ-hENaC; TNF, amiloride-sensitive Na^+ current, αβγ-hENaC in HEK-293, whole-cell, -100 mV, 19–22°C, bath pH 7.4, cumulative addition, mean ± S.E., n = 5, p < 0.001 vs solnatide): 6.7 ± 2.1 nM | EC50 (β-hENaC): 18.8 ± 2.9 nM
Compound: TNF: Tumor necrosis factor (CAS Registry Number 94948-59-1, Sigma-Aldrich, Austria)

fold increase of current (TNF-induced/amiloride-sensitive current), whole-cell patch clamp, transfected HEK-293 cells (αR448fsβγ-ENaC (human)): 3.5 fold | EC50 of TNF for activating amiloride-sensitive Na+ current, whole-cell patch clamp at -100 mV, transfected HEK-293 cells [1]: 4.2 nM | maximal TNF-induced amiloride-sensitive Na+ current, whole-cell patch clamp at -100 mV, transfected HEK-293 cells [1]: 48.1 pA | EC50 of TNF for activating amiloride-sensitive Na+ current, whole-cell patch clamp at -100 mV, transfected HEK-293 cells [2]: 5 nM | maximal TNF-induced amiloride-sensitive Na+ current, whole-cell patch clamp at -100 mV, transfected HEK-293 cells [2]: 27.8 pA | EC50 of TNF for activating amiloride-sensitive Na+ current, whole-cell patch clamp at -100 mV, transfected HEK-293 cells [3]: 6.7 nM | maximal TNF-induced amiloride-sensitive Na+ current, whole-cell patch clamp at -100 mV, transfected HEK-293 cells [3]: 162 pA | EC50 of TNF for activating amiloride-sensitive Na+ current, whole-cell patch clamp at -100 mV, transfected HEK-293 cells [4]: 18.8 nM | maximal TNF-induced amiloride-sensitive Na+ current, whole-cell patch clamp at -100 mV, transfected HEK-293 cells [4]: 18.5 pA | maximal TNF-induced amiloride-sensitive Na+ current, whole-cell patch clamp at -100 mV, transfected HEK-293 cells [5]: 8 pA | maximal TNF-induced current, whole-cell patch clamp, transfected HEK-293 cells (αN511Qβγ-ENaC (human)): 50.7 pA | maximal TNF-induced current, whole-cell patch clamp, transfected HEK-293 cells (αN232Qβγ-ENaC (human)): 84.7 pA
Compound: Tumor necrosis factor (TNF) (ligand)
